Data on two molecules can be found in patent US10287362.

For experiment [1], the target named is T1, human CD73 ECD (human, UniProt P21589).
T1 chain: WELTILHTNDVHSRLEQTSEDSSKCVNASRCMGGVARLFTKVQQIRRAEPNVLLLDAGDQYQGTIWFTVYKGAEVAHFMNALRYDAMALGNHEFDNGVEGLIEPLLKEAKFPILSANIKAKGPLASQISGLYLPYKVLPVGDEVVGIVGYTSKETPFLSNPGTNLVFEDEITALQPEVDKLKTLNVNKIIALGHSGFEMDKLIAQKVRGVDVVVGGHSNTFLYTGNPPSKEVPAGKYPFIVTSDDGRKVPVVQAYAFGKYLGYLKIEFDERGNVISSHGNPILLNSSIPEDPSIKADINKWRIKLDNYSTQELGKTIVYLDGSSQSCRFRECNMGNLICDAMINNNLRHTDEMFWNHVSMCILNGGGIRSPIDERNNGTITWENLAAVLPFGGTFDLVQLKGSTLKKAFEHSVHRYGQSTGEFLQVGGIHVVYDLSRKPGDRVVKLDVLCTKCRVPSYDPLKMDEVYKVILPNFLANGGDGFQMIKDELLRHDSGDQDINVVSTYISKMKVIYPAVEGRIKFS
The experiment in a line: SPR.

Experiment [2] has as its target T2, murine CD73 ECD (mouse, UniProt Q61503).
T2 chain: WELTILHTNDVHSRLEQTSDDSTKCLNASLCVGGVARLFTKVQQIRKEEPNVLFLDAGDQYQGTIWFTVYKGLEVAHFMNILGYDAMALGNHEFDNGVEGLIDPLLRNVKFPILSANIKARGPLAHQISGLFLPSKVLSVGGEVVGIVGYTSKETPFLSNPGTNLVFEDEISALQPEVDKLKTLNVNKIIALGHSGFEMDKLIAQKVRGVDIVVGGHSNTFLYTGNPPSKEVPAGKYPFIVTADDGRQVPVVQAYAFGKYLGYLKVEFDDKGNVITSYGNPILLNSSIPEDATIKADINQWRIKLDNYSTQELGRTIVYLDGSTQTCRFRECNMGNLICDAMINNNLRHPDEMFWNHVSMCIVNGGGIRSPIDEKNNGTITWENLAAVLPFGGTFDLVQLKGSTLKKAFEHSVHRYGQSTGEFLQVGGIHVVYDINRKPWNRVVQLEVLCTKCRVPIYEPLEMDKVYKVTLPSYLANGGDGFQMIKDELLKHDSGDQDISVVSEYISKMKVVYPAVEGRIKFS
Put plainly: SPR.

For experiment [3], the target named is T2, murine CD73 ECD. Put plainly: SPR.
Experiment [4] addresses T1, human CD73 ECD. Put plainly: SPR. In general terms: SPR reads the build-up and loss of mass on a sensor chip optically.
The target in experiment [5] is T3, human CD73 on MDA-MB-231 cells (human, UniProt P21589).
T3 chain: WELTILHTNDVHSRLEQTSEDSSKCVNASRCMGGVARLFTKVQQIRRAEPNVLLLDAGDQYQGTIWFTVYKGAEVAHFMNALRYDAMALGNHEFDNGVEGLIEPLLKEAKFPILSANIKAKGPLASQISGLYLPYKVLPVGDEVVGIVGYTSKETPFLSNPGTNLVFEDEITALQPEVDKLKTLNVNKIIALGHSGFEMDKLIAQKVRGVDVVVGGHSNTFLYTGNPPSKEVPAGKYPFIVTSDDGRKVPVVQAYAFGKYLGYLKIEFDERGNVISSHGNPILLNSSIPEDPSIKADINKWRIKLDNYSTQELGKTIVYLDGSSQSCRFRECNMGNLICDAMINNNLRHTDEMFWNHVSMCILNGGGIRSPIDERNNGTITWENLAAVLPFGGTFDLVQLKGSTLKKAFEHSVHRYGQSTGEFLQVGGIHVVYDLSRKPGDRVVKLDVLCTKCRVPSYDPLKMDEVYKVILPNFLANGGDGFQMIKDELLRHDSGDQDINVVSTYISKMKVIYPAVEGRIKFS
The experiment in a line: FACS. A general note: A flow cytometer gives signals particle by particle.

Experiment [6] addresses T4, murine CD73 on 4T1 cells (mouse, UniProt Q61503).
T4 chain: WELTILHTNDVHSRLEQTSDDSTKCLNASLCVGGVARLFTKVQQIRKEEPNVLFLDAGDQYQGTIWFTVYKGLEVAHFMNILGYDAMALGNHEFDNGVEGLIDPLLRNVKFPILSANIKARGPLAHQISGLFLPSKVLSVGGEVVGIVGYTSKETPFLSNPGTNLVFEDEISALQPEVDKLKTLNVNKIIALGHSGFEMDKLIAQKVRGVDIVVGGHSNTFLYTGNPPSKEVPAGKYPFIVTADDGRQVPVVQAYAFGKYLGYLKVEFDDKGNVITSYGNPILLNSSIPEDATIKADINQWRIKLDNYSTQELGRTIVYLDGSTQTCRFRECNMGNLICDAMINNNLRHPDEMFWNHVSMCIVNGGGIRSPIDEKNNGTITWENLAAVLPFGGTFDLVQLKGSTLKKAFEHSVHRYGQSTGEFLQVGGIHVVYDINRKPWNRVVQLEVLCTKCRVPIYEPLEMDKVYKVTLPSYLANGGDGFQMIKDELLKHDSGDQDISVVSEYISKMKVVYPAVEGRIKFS
The experiment in a line: FACS.

Experiment [7] addresses T4, murine CD73 on 4T1 cells. The experiment in a line: FACS.
The target of experiment [8] is T3, human CD73 on MDA-MB-231 cells. The experiment in a line: FACS.
Experiment [9] deals with T5, CD73 V144K (human, UniProt P21589).
T5 chain: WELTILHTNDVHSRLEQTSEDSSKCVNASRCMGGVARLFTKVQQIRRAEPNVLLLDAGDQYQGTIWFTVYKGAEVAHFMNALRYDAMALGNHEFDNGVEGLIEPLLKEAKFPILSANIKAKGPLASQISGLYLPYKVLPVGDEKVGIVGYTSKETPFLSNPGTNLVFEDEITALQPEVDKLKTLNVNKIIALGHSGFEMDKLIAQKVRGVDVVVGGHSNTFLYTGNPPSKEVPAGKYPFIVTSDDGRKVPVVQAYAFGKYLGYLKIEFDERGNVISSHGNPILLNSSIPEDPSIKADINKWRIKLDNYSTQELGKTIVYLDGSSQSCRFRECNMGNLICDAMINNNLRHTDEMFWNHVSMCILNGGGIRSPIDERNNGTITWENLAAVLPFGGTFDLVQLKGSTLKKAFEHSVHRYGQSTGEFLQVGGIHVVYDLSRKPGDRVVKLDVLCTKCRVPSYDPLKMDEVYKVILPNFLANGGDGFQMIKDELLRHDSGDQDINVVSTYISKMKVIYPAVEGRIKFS
The experiment in a line: SPR, bivalent.

Experiment [10] addresses T6, CD73 N185G (human, UniProt P21589).
T6 chain: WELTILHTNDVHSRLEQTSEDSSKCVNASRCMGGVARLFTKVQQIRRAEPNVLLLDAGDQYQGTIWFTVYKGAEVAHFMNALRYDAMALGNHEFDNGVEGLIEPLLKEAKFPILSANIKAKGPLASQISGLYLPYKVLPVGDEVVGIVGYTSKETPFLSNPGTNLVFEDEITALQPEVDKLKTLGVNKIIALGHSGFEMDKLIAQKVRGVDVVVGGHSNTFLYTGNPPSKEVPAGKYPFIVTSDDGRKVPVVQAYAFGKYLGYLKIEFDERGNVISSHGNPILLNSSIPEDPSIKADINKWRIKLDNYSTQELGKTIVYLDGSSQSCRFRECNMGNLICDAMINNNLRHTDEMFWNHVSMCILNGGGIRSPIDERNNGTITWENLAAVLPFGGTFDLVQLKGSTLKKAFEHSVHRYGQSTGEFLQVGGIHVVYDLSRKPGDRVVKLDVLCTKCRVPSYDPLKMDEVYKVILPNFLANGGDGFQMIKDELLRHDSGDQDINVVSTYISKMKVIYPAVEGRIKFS
The experiment in a line: SPR, bivalent.

Experiment [11] addresses T7, CD73 V144K+K180A (human, UniProt P21589).
T7 chain: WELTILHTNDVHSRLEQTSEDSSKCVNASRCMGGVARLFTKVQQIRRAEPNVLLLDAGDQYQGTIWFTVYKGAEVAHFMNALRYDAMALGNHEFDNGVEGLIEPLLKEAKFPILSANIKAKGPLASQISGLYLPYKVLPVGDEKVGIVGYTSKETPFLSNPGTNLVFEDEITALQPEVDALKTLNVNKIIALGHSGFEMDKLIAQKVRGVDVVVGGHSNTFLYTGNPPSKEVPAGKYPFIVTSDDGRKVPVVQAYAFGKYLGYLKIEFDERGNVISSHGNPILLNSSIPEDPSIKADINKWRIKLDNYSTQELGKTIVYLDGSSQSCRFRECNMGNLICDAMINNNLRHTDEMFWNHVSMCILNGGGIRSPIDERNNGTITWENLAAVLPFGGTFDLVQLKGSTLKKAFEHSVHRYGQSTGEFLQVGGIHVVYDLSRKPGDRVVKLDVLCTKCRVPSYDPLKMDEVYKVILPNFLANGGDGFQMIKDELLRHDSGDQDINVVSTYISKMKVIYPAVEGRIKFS
Put plainly: SPR, bivalent.

Experiment [12] deals with T8, CD73 K180A (human, UniProt P21589).
T8 chain: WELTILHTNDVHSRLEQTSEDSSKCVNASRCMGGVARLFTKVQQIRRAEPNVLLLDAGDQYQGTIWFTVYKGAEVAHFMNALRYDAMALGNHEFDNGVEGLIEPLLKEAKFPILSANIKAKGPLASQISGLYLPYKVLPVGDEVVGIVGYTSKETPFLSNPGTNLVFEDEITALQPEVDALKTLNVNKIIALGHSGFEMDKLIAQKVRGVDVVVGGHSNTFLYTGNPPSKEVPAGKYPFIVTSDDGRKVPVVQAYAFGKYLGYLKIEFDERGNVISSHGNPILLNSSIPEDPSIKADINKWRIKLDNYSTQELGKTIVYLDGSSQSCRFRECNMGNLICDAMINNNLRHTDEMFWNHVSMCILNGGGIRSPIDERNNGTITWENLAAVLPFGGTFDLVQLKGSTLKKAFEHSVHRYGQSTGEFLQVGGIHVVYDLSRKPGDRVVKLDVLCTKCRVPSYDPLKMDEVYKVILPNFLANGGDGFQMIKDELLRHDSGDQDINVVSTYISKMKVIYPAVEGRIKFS
Put plainly: SPR, bivalent.

The target in experiment [13] is T9, CD73 V144K+N185G (human, UniProt P21589).
T9 chain: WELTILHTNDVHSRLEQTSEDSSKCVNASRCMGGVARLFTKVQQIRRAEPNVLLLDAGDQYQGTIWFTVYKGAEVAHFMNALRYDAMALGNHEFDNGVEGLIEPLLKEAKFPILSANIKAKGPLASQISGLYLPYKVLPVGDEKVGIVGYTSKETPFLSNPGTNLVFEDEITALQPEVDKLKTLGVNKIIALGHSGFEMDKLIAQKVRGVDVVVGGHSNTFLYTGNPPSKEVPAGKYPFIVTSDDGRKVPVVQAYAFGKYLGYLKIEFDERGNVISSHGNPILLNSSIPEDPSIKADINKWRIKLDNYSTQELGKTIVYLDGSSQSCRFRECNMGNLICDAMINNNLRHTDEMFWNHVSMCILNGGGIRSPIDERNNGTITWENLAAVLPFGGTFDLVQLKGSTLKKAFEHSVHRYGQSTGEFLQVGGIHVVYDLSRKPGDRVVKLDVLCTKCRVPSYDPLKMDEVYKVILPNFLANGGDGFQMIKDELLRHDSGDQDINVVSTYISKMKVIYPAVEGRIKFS
Put plainly: SPR, bivalent.

For experiment [14], the target named is T10, CD73 K180A+N185G (human, UniProt P21589).
T10 chain: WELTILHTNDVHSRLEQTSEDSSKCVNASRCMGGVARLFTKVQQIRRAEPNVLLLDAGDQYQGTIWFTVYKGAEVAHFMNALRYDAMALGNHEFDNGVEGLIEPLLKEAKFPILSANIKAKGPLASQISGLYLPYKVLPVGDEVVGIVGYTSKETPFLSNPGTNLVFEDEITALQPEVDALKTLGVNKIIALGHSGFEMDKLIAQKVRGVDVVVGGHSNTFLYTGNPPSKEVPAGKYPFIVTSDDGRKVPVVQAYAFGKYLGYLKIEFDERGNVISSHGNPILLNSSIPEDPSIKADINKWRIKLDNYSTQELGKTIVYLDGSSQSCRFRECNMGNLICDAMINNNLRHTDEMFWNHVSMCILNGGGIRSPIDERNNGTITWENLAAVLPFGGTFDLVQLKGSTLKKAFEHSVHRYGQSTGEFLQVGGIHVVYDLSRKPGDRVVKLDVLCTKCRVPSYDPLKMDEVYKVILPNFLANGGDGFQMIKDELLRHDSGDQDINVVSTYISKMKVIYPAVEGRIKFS
The experiment in a line: SPR, bivalent.

Experiment [15] deals with T1, human CD73 ECD. Put plainly: SPR, bivalent.
The target in experiment [16] is T1, human CD73 ECD.

Where two headings read alike, the source gives them in different places.

B1: MEDI9447 (73combo3, clone 10.3) (antibody, V domains shown)
VH: EVQLLESGGGLVQPGGSLRLSCAASGFTFSSYAYSWVRQAPGKGLEWVSAISGSGGRTYYADSVKGRFTISRDNSKNTLYLQMNSLRAEDTAVYYCARLGYGRVDEWGRGTLVTVSS
VL: QSVLTQPPSASGTPGQRVTISCSGSLSNIGRNPVNWYQQLPGTAPKLLIYLDNLRLSGVPDRFSGSKSGTSASLAISGLQSEDEADYYCATWDDSHPGWTFGGGTKLTVL
As for B1, the Kd in [1] was found to be 0.0041 nM; in experiment [2], 0.001 nM; in experiment [3], 0.0009 nM; in experiment [4], 0.004 nM; in [5], 0.154 nM; in experiment [6], 0.113 nM. Further, the Kd was 0.113 nM in [7]; 0.154 nM in [8]; 0.0814 nM in experiment [9]; 0.0269 nM in experiment [10]; 2.68 nM in [11]; 0.0435 nM in experiment [12]. In [15], this molecule registered a Kd of 0.0042 nM. Also, the binding result in [13] and in experiment [14] was “no binding” in each case.

B2: MEDI9447 Fab (antibody, V domains shown)
VH: EVQLLESGGGLVQPGGSLRLSCAASGFTFSSYAYSWVRQAPGKGLEWVSAISGSGGRTYYADSVKGRFTISRDNSKNTLYLQMNSLRAEDTAVYYCARLGYGRVDEWGRGTLVTVSS
VL: QSVLTQPPSASGTPGQRVTISCSGSLSNIGRNPVNWYQQLPGTAPKLLIYLDNLRLSGVPDRFSGSKSGTSASLAISGLQSEDEADYYCATWDDSHPGWTFGGGTKLTVL
In experiment [16], B2 showed a Kd of 0.327 nM.
